US20260242839A1, “GLYCOSIDE PRODUCT BIOSYNTHESIS AND RECOVERY” (Manus Bio Inc., priority 2023, published 2026)
Where “and” joins values, the source holds several entries; their conditions need not be identical. Identical values can stand only once.

System: steviol glycoside
Assay: steviol glycoside bioconversion by E. coli expressing individual mutations of UGT SEQ ID NO: 15
Format: cell-based
Conditions: fold improvement of % conversion vs parent UGT SEQ ID NO: 15; stevia leaf extract and glucose fed; 37° C., 48 hr
Procedure: Fold improvement is with respect to % steviol glycoside conversion of the parent UGT enzyme of SEQ ID NO: 15. SEQ ID NO: 16 has the following mutations from SEQ ID NO: 15: M152A, S153A. Stevia leaf extract and glucose were fed to the bioconversion strains. Bioconversion took place at 37° C. for 48 hr. Data were quantified by reverse phase LC DAD to quantify conversion of steviol glycosides.
Fold improvement (FI) is with respect to % steviol glycoside conversion.

B1: A81K: mutation to UGT enzyme of SEQ ID NO: 15 (protein)
chain: MARRTKNSSGMSLAERFWLTLSRSSLVVGRSCVEFEPETVPLLSTLRGKPITFLGLMPPLPEGRREDGEDATVRWLDAQPKKSVVYVALGSEVPLGVEKVHELALGLELAGTRFLWALRKPTGVSDADLLPAGFEERTRGRGVVATRWVPQMSILAHAAVGAFLTHCGWNSTIEGLMFGHPLIMLPITGDQGPNARLIEAKNAGLQVARNDGDGSFDREGVAAAIRAVAVEEESSKVFQEKAKKLQEIVADMACHERYIDGFIQQLRSYKDDSGYSSSYAAAAGMHVVICPWLAFGHLLPCLDLAQRLASRGHRVSFVSTPRNISRLPPVRPALAPLVAFVALPLPRVEGLPDGAESTNDVPHDRPDMVELHRRAFDGLAAPFSEFLGTACADWVIVDSFHHWAAAAALEHKVPCAMMFLGSAEMIASIADERLEHAETESPAAAGQGRPAAAPTFEVARMKLIR
FI % Stevioside −> rebE: 1.02 and 1.01
FI % rebA −> rebD: 1.04 and 1.02

B2: P442G: mutation to UGT enzyme of SEQ ID NO: 15 (protein)
chain: MARRTKNSSGMSLAERFWLTLSRSSLVVGRSCVEFEPETVPLLSTLRGKPITFLGLMPPLPEGRREDGEDATVRWLDAQPAKSVVYVALGSEVPLGVEKVHELALGLELAGTRFLWALRKPTGVSDADLLPAGFEERTRGRGVVATRWVPQMSILAHAAVGAFLTHCGWNSTIEGLMFGHPLIMLPITGDQGPNARLIEAKNAGLQVARNDGDGSFDREGVAAAIRAVAVEEESSKVFQEKAKKLQEIVADMACHERYIDGFIQQLRSYKDDSGYSSSYAAAAGMHVVICPWLAFGHLLPCLDLAQRLASRGHRVSFVSTPRNISRLPPVRPALAPLVAFVALPLPRVEGLPDGAESTNDVPHDRPDMVELHRRAFDGLAAPFSEFLGTACADWVIVDSFHHWAAAAALEHKVPCAMMFLGSAEMIASIADERLEHAETESGAAAGQGRPAAAPTFEVARMKLIR
FI % Stevioside −> rebE: 1.01
FI % rebA −> rebD: 1.01

B3: K99E: mutation to UGT enzyme of SEQ ID NO: 15 (protein)
chain: MARRTKNSSGMSLAERFWLTLSRSSLVVGRSCVEFEPETVPLLSTLRGKPITFLGLMPPLPEGRREDGEDATVRWLDAQPAKSVVYVALGSEVPLGVEEVHELALGLELAGTRFLWALRKPTGVSDADLLPAGFEERTRGRGVVATRWVPQMSILAHAAVGAFLTHCGWNSTIEGLMFGHPLIMLPITGDQGPNARLIEAKNAGLQVARNDGDGSFDREGVAAAIRAVAVEEESSKVFQEKAKKLQEIVADMACHERYIDGFIQQLRSYKDDSGYSSSYAAAAGMHVVICPWLAFGHLLPCLDLAQRLASRGHRVSFVSTPRNISRLPPVRPALAPLVAFVALPLPRVEGLPDGAESTNDVPHDRPDMVELHRRAFDGLAAPFSEFLGTACADWVIVDSFHHWAAAAALEHKVPCAMMFLGSAEMIASIADERLEHAETESPAAAGQGRPAAAPTFEVARMKLIR
FI % Stevioside −> rebE: 1.02
FI % rebA −> rebD: 1.03

B4: L298F: mutation to UGT enzyme of SEQ ID NO: 15 (protein)
chain: MARRTKNSSGMSLAERFWLTLSRSSLVVGRSCVEFEPETVPLLSTLRGKPITFLGLMPPLPEGRREDGEDATVRWLDAQPAKSVVYVALGSEVPLGVEKVHELALGLELAGTRFLWALRKPTGVSDADLLPAGFEERTRGRGVVATRWVPQMSILAHAAVGAFLTHCGWNSTIEGLMFGHPLIMLPITGDQGPNARLIEAKNAGLQVARNDGDGSFDREGVAAAIRAVAVEEESSKVFQEKAKKLQEIVADMACHERYIDGFIQQLRSYKDDSGYSSSYAAAAGMHVVICPWLAFGHFLPCLDLAQRLASRGHRVSFVSTPRNISRLPPVRPALAPLVAFVALPLPRVEGLPDGAESTNDVPHDRPDMVELHRRAFDGLAAPFSEFLGTACADWVIVDSFHHWAAAAALEHKVPCAMMFLGSAEMIASIADERLEHAETESPAAAGQGRPAAAPTFEVARMKLIR
FI % Stevioside −> rebE: 1.01
FI % rebA −> rebD: 0.97

B5: A451R: mutation to UGT enzyme of SEQ ID NO: 15 (protein)
chain: MARRTKNSSGMSLAERFWLTLSRSSLVVGRSCVEFEPETVPLLSTLRGKPITFLGLMPPLPEGRREDGEDATVRWLDAQPAKSVVYVALGSEVPLGVEKVHELALGLELAGTRFLWALRKPTGVSDADLLPAGFEERTRGRGVVATRWVPQMSILAHAAVGAFLTHCGWNSTIEGLMFGHPLIMLPITGDQGPNARLIEAKNAGLQVARNDGDGSFDREGVAAAIRAVAVEEESSKVFQEKAKKLQEIVADMACHERYIDGFIQQLRSYKDDSGYSSSYAAAAGMHVVICPWLAFGHLLPCLDLAQRLASRGHRVSFVSTPRNISRLPPVRPALAPLVAFVALPLPRVEGLPDGAESTNDVPHDRPDMVELHRRAFDGLAAPFSEFLGTACADWVIVDSFHHWAAAAALEHKVPCAMMFLGSAEMIASIADERLEHAETESPAAAGQGRPRAAPTFEVARMKLIR
FI % Stevioside −> rebE: 0.99
FI % rebA −> rebD: 1.02

B6: L205Y: mutation to UGT enzyme of SEQ ID NO: 15 (protein)
chain: MARRTKNSSGMSLAERFWLTLSRSSLVVGRSCVEFEPETVPLLSTLRGKPITFLGLMPPLPEGRREDGEDATVRWLDAQPAKSVVYVALGSEVPLGVEKVHELALGLELAGTRFLWALRKPTGVSDADLLPAGFEERTRGRGVVATRWVPQMSILAHAAVGAFLTHCGWNSTIEGLMFGHPLIMLPITGDQGPNARLIEAKNAGYQVARNDGDGSFDREGVAAAIRAVAVEEESSKVFQEKAKKLQEIVADMACHERYIDGFIQQLRSYKDDSGYSSSYAAAAGMHVVICPWLAFGHLLPCLDLAQRLASRGHRVSFVSTPRNISRLPPVRPALAPLVAFVALPLPRVEGLPDGAESTNDVPHDRPDMVELHRRAFDGLAAPFSEFLGTACADWVIVDSFHHWAAAAALEHKVPCAMMFLGSAEMIASIADERLEHAETESPAAAGQGRPAAAPTFEVARMKLIR
FI % Stevioside −> rebE: 1.03
FI % rebA −> rebD: 1.04

B7: G189Y: mutation to UGT enzyme of SEQ ID NO: 15 (protein)
chain: MARRTKNSSGMSLAERFWLTLSRSSLVVGRSCVEFEPETVPLLSTLRGKPITFLGLMPPLPEGRREDGEDATVRWLDAQPAKSVVYVALGSEVPLGVEKVHELALGLELAGTRFLWALRKPTGVSDADLLPAGFEERTRGRGVVATRWVPQMSILAHAAVGAFLTHCGWNSTIEGLMFGHPLIMLPITYDQGPNARLIEAKNAGLQVARNDGDGSFDREGVAAAIRAVAVEEESSKVFQEKAKKLQEIVADMACHERYIDGFIQQLRSYKDDSGYSSSYAAAAGMHVVICPWLAFGHLLPCLDLAQRLASRGHRVSFVSTPRNISRLPPVRPALAPLVAFVALPLPRVEGLPDGAESTNDVPHDRPDMVELHRRAFDGLAAPFSEFLGTACADWVIVDSFHHWAAAAALEHKVPCAMMFLGSAEMIASIADERLEHAETESPAAAGQGRPAAAPTFEVARMKLIR
FI % Stevioside −> rebE: 1.04
FI % rebA −> rebD: 1.04

B8: A81G: mutation to UGT enzyme of SEQ ID NO: 15 (protein)
chain: MARRTKNSSGMSLAERFWLTLSRSSLVVGRSCVEFEPETVPLLSTLRGKPITFLGLMPPLPEGRREDGEDATVRWLDAQPGKSVVYVALGSEVPLGVEKVHELALGLELAGTRFLWALRKPTGVSDADLLPAGFEERTRGRGVVATRWVPQMSILAHAAVGAFLTHCGWNSTIEGLMFGHPLIMLPITGDQGPNARLIEAKNAGLQVARNDGDGSFDREGVAAAIRAVAVEEESSKVFQEKAKKLQEIVADMACHERYIDGFIQQLRSYKDDSGYSSSYAAAAGMHVVICPWLAFGHLLPCLDLAQRLASRGHRVSFVSTPRNISRLPPVRPALAPLVAFVALPLPRVEGLPDGAESTNDVPHDRPDMVELHRRAFDGLAAPFSEFLGTACADWVIVDSFHHWAAAAALEHKVPCAMMFLGSAEMIASIADERLEHAETESPAAAGQGRPAAAPTFEVARMKLIR
FI % Stevioside −> rebE: 1.09
FI % rebA −> rebD: 1.04

B9: M425S: mutation to UGT enzyme of SEQ ID NO: 15 (protein)
chain: MARRTKNSSGMSLAERFWLTLSRSSLVVGRSCVEFEPETVPLLSTLRGKPITFLGLMPPLPEGRREDGEDATVRWLDAQPAKSVVYVALGSEVPLGVEKVHELALGLELAGTRFLWALRKPTGVSDADLLPAGFEERTRGRGVVATRWVPQMSILAHAAVGAFLTHCGWNSTIEGLMFGHPLIMLPITGDQGPNARLIEAKNAGLQVARNDGDGSFDREGVAAAIRAVAVEEESSKVFQEKAKKLQEIVADMACHERYIDGFIQQLRSYKDDSGYSSSYAAAAGMHVVICPWLAFGHLLPCLDLAQRLASRGHRVSFVSTPRNISRLPPVRPALAPLVAFVALPLPRVEGLPDGAESTNDVPHDRPDMVELHRRAFDGLAAPFSEFLGTACADWVIVDSFHHWAAAAALEHKVPCAMMFLGSAESIASIADERLEHAETESPAAAGQGRPAAAPTFEVARMKLIR
FI % Stevioside −> rebE: 1.03
FI % rebA −> rebD: 1.02

B10: G96M: mutation to UGT enzyme of SEQ ID NO: 15 (protein)
chain: MARRTKNSSGMSLAERFWLTLSRSSLVVGRSCVEFEPETVPLLSTLRGKPITFLGLMPPLPEGRREDGEDATVRWLDAQPAKSVVYVALGSEVPLMVEKVHELALGLELAGTRFLWALRKPTGVSDADLLPAGFEERTRGRGVVATRWVPQMSILAHAAVGAFLTHCGWNSTIEGLMFGHPLIMLPITGDQGPNARLIEAKNAGLQVARNDGDGSFDREGVAAAIRAVAVEEESSKVFQEKAKKLQEIVADMACHERYIDGFIQQLRSYKDDSGYSSSYAAAAGMHVVICPWLAFGHLLPCLDLAQRLASRGHRVSFVSTPRNISRLPPVRPALAPLVAFVALPLPRVEGLPDGAESTNDVPHDRPDMVELHRRAFDGLAAPFSEFLGTACADWVIVDSFHHWAAAAALEHKVPCAMMFLGSAEMIASIADERLEHAETESPAAAGQGRPAAAPTFEVARMKLIR
FI % Stevioside −> rebE: 1.03 and 1.10
FI % rebA −> rebD: 1.01 and 1.10
